Results as given in patent publication US20250186623A1, “EXPRESSION SYSTEM FOR THE TREATMENT OF CANCER” (FUNDACION PARA LA INVESTIGACION MEDICA APLICADA, priority 2022, published 2025).

What was measured:
[1] = tested on: B16 cells transduced with AAV8-ISREx4-LucmiR122T; experiment: Radiation and IFN signaling on activation of the ISREx4 promoter (luciferase); assay type: cell-based, murine
Excerpt: The ISREx4 promoter responds to interferon downstream signaling.

[2] = tested on: human HEK293T cells stably expressing hSTINGmut; experiment: Luciferase activity under synthetic promoters (pGL3-basic plasmids); assay type: cell-based; conditions: for luciferase activity / inducibility upon DMXAA: DMXAA 50 μg/mL, 48 h; for leakage in the absence of DMXAA: vehicle
Excerpt: (§1) As described above, the specificity of the promoters used in the previous experiments was somewhat poor. […] In order to achieve this, synthetic promoters have been generated.
(§2) Seven different promoters were generated, namely short STATx4 (4 STAT motifs separated by 6 nucleotides according to SEQ ID NO: 26), IRSF3×4 (4 IRSF3 motifs separated by 20 nucleotides according to SEQ ID NO: 27), short IRSF3×4 (4 IRSF3 motifs separated by 6 nucleotides according to SEQ ID NO: 28), ISREx4 (4 ISRE motifs separated by 20 nucleotides according to SEQ ID NO: 12), short ISREx4 (4 ISRE motifs separated by 6 nucleotides according to SEQ ID NO: 13), NFκBx4 (4 NFκB motifs separated by 20 nucleotides according to SEQ ID NO: 29) and short NFκBx4 (4 NFκB motifs separated by 6 nucleotides according to SEQ ID NO: 30). […] In addition, a plasmid containing the luciferase sequence under the control of the murine IFN-β-promoter (mIFN-β) and a plasmid containing the luciferase sequence under the control of CXCL10-promoter were used as controls. Either MC38 cells or human HEK293T cells, both which stably expressed hSTINGmut as described above (example 1), were transfected with the indicated plasmids using Lipofectamine3000 according to the manufacturers protocol, whereas a negative control was mock-transfected (Basic).

[3] = tested on: MC38 cell lines stably expressing hSTINGmut; experiment: scIL-12 mRNA (qPCR) and secreted protein (ELISA) under STING-activity dependent promoters; assay type: cell-based, murine; conditions: for scIL-12 mRNA or protein expression upon DMXAA treatment: DMXAA 50 μg/mL
Excerpt: The CXCL9-promoter and the CXCL10-promoter from experiment 2, and a full length IFN-β-promoter (IFN-β according to SEQ ID NO: 25) were used for the following experiment. To this end, lentiviral vectors encoding murine scIL-12 under the control of these three different promoters were constructed. […] After the indicated time points, cells were harvested. The cell lysate was used to measure scIL-12 mRNA expression by qPCR as described before (example 1, experiment 1), whereas the supernatant was used to measure secreted scIL-12 protein in NUNC MaxiSorp flat-bottom 96-well plates using an ELISA assay kit (OptEIA, Mouse IL-12 (p70), BD Biosciences, San Diego, CA USA), following manufacturer's instructions.

[4] = tested on: MC38 cell lines stably expressing hSTINGmut; experiment: Luciferase activity under chemokine promoters; assay type: cell-based, murine; conditions: for luciferase activity upon DMXAA administration: DMXAA 50 μg/mL, 3 or 6 h; for luciferase activity in the absence of DMXAA (leaky expression): vehicle
Excerpt: Therefore, the objective of this experiment was to examine the specificity of these promoters in their response to DMXAA-induced STING activity.
The CXCL9-promoter (CXCL9 according to SEQ ID NO: 23) and the CXCL10-promoter (CXCL10 according to SEQ ID NO: 24) were used for the following experiment. To this end, lentiviral vectors encoding luciferase under the control of these two different promoters were constructed. […] In addition, the lentiviral vectors encoding the short IFN-β A promoter, the short IFN-β B promoter, the short IFN-β C promoter described in experiment 1 were used as a comparison. […] After another 3 or 6 h, cells were harvested and luciferase activity measured as described in experiment 1.

[5] = tested on: MC38 cell lines stably expressing hSTINGmut; experiment: Luciferase activity under modified IFN-β promoters; assay type: cell-based, murine
Excerpt: Therefore, the objective of this experiment was to examine the specificity of different modified IFN-β promoters in their response to DMXAA-induced STING activity.
To this end, five different modifications of the IFN-β promoter (short IFN-β A according to SEQ ID NO: 18, short IFN-β B according to SEQ ID NO: 19, short IFN-β C according to SEQ ID NO: 20, short IFN-β D according to SEQ ID NO: 21, short IFN-β E according to SEQ ID NO: 22) were designed. Lentiviral vectors encoding luciferase under the control of these five different promoters were constructed. […] After another 3 h (FIG. 3A) or 3 and 6 h (FIGS. 3B, 3C, 3D) or 6 h (FIGS. 3E, 3F, 3G and 3H), cells were homogenized in 50 μL of Passive Lysis Buffer (Promega) and frozen in dry ice. After 3 cycles of thaw-vortex-freeze to ensure lysis, cells were spun at 12000 g for 2 min at 4° C. 20 μL were added to a luminometer 96-well plate and luciferase activity was determined using the respective substrates D-Luciferin and Coelenterazine.

[6] = tested on: MC38 cells stably expressing hSTINGmut; experiment: Luciferase activity under synthetic promoters (pGL3-basic plasmids); assay type: cell-based, murine; conditions: DMXAA 50 μg/mL, 48 h
Excerpt: as §1, §2

[7] = 1,000 IU interferon alone (0 Gy)
[8] = 1,000 IU interferon together with radiation (8 Gy)

IFN-α
luciferase activity [1, 7]: significantly increased luciferase activity
luciferase activity [1, 8]: induced luciferase activity dramatically

B1: IFN-γ: exogenously added interferon, 1,000 IU (protein, UniProt P01579 24-161, looked up)
Interferon gamma: QDPYVKEAENLKKYFNAGHSDVADNGTLFLGILKNWKEESDRKIMQSQIVSFYFKLFKNFKDDQSIQKSVETIKEDMNVKFFNSNKKKRDDFEKLTNYSVTDLNVQRKAIHELIQVMAELSPAAKTGKRKRSQMLFRG
luciferase activity [1, 7]: significantly increased luciferase activity
luciferase activity [1, 8]: induced luciferase activity dramatically

B2: ISREx4-promoter: 4 ISRE motifs separated by 20 nucleotides according to SEQ ID NO: 12 (nucleic acid)
DNA: ATCTCTGCGATGAACCTCACAGTTTCGCTTTCTATCTCTGCGATGAACCTCACAGTTTCGCTTTCTATCTCTGCGATGAACCTCACAGTTTCGCTTTCTATCTCTGCGATGAACCTCACAGTTTCGCTTTCTGTGCCTCTTATGATCTGGATCTCGAGCCATGGTCGAGGCCTGTAGGCGTGTACGGTGGGAGGCTTATATAAGCAGAGCTC
modifications: misc_feature 1..212 ISREx4
luciferase activity / inducibility upon DMXAA [2]: highest inducibility
leakage in the absence of DMXAA [2]: undetectable leakage

B3: IFN-β-promoter: full length IFN-β-promoter according to SEQ ID NO: 25 (nucleic acid, listed as Mus musculus)
DNA: CCAGGATGTGGGGTTCTCTCCCAAAGGGAGCTATGGCCCATTGATGTGCCATTTCTCTTATAGTACACTATTGTAAGCCCCCTGGGAGCTCACAGAGACCCTCTCCCACCATCCCACTATTTCAAAGGGCAGCAGCTGTGCCATCCTTTCAGGATGAGCAGCTACTCTGCCTGGCTTTTCAGTGGACACTTTGGCTGTTTGAGAGTTCTTTTATCTTCAGGGCTGTCTCCTTTCTGTTCTTCTCTCCTGGATATTTCTCTTCCTTTGCTCCAGCAATTGGTGAAACTGTACAAGATTTTATAAATCCTTAGTTTGTATATATTTTAACCCAGTACATAGCATATAAAATAGCCAGGAGCTTGAATAAAATGAATATTAGAAGCTGTTAGAATAAGAGAAAATGACAGAGGAAAACTGAAAGGGAGAACTGAAAGTGGGAAATTCCTCTGAGGCAGAAAGGACCATCCCTTATAAATAGCACAGGCCATGAAGGAAGATCATTCTCACTGCAGCCTTTGACAGCCTTTGCCTCATCTTGCAGGTAGCAGCCGACACCAGCCTGGCTTCCATC
modifications: misc_feature 1..571 IFNb1-promoter
scIL-12 mRNA or protein expression upon DMXAA treatment [3]: poor

B4: CXCL10-promoter: CXCL10-promoter according to SEQ ID NO: 24 (nucleic acid, listed as Mus musculus)
DNA: TCTAACTGTTCACTAAGTTGTATAGACTTTGGATCTGGCTAAATTTGGCGTGTGATTTTTTTTTAAAGTTTATTCCAAGTATTTTATAATAAAGCATATGAAGTAAAAAGCAAAAATAAACAGTGTAAACACAACAAATGTAAAAACCATGGTTAGAACCTGACTTAGATATCAGTTCTGTGTTTTATTTATGAGAGAAGGAAGATGAGAATTAAAGCCATTTCCAGACTTATTCTGCAAGGCACTGCATCTGATTTCTCAAACAGCTCACGCTTTGGAAAGTGAAACTTACCTCACTCGTTAAAAATTAAAAGGAGCACAAGAGGGGAGAGGGAAATTCCAAGTTCATGGGTCACAATAAACACAAGCAATGCCCTCGGTTTACAGGGGACTTCCCTCGGGTTGCGGAGCCTTGCTGAGTCATCTCCAAAGTCAGCCAATCAGGACTCAGGGAGGGAAACTCTTTGCAGATAAATACTCCTCAGCAGCCGGCACTCGAGAAGCGCTTCATCCACCGCTGAGAGACATCCCGAGCCAACCTTCCGGAAGCCTCCCCATCAGCACC
modifications: misc_feature 1..565 CXCL10-promoter
luciferase activity upon DMXAA administration [4]: significantly higher luciferase activities
luciferase activity in the absence of DMXAA (leaky expression) [4]: significant luciferase activity
luciferase activity / inducibility upon DMXAA [2]: highest inducibility
leakage in the absence of DMXAA [2]: considerable leakage
scIL-12 mRNA or protein expression upon DMXAA treatment [3]: highly upregulated
scIL-12 production in the absence of DMXAA (leakage) ([3]; vehicle): significant leakage

B5: short IFN-β A promoter: modification of the IFN-β promoter according to SEQ ID NO: 18 (nucleic acid)
DNA: CAGGAGCTTGAATAAAATGAATATTAGAAGCTGTTAGAATAAGAGAAAATGACAGAGGAAAACTGAAAGGGAGAACTGAAAGTGGGAAATTCCTCTGAGGCAGAAAGGACCATCCCTTATAAATAGCACAGGCCATGAAGGAAGATCATTCTCACTGCAGCCTTTGACAGCCTTTGCCTCATCTTGCAGGTAGCAGCCGACACCAGCCTGGCTTCCATC
modifications: misc_feature 1..219 short IFNb A-promoter
luciferase activity upon DMXAA treatment ([5]; DMXAA 50 μg/mL, 3 h): highest luciferase activity
luciferase activity in the absence of DMXAA (leaky expression) ([5]; vehicle): significant luciferase activity

B6: CXCL9-promoter: CXCL9-promoter according to SEQ ID NO: 23 (nucleic acid, listed as Mus musculus)
DNA: GACACAGACATCTCGTGAAACATCTGGAAAAGGTAGCAGGGAACGGGACAGCAGTAGCTTATGCAACTAATCTAGCAATTACAATGATAGGAAACTGTAGCCACGGTGAGACGAAATGGATTTACCCTCAACAAATTAAGAAGCTTTGACTTGTGAGGAAAGGCAGTTTGAGTCGCCATATAGTGTCATGTCCCACGTGGGAAGTACATCTCCAACCTTCATTGTACAACATTAATATAGTCATTGTATAATCTATTCCACATCCAGGTAGCAACTTTGCCTGGGGGTGGTTTCACATCCCTTACTATAAACTCCCCGTTTATGTGAAATGGAAGTAGAACATGCAGAAATTCCCTGGGATCTGAGAGTAGGGTTTTCCCCAGGACGATCAATTTGTGGTTAGTTTAGTTCTTCTAGGTCAGCTGAGGAGACCAGCCAATCAGAGACGGGAAGGAAAAGGGATTTCCTAAATAAATATGATCCCCAAGAACATGCTCTCTAAAGACATTCTCGGACTTCACTCCAACACAGTGACTCAATAGAACTCAGCTCTGCC
modifications: misc_feature 1..556 CXCL9-promoter
luciferase activity upon DMXAA administration [4]: significantly higher luciferase activities
luciferase activity in the absence of DMXAA (leaky expression) [4]: significant luciferase activity
scIL-12 mRNA or protein expression upon DMXAA treatment [3]: poor

B7: short STAT-promoter: 4 STAT motifs separated by 6 nucleotides according to SEQ ID NO: 26 (nucleic acid)
DNA: ATCTCTGCGATGAACCTCACTTCGCTAGAAATCTCTGCGATGAACCTCACTTCGCTAGAAATATCTCTGCGATGAACCTCACTTCGCTAGAAATCTCTGCGATGAACCTCACTTCGCTAGAAGTGCCTCTTATGATCTGGATCTCGAGCCATGGTCGAGGCCTGTAGGCGTGTACGGTGGGAGGCTTATATAAGCAGAGCTC
modifications: misc_feature 1..202 STATx4
luciferase activity / inducibility upon DMXAA [6]: poor inducibility
